According to patent US20250326818A1 (UNIVERSIT T BASEL, published 2025):

Target: T1, CD123 ECD wt (human, UniProt P26951 19-305)
T1 construct: Recombinant extracellular domain; Biotinylated when captured for the hIL3 assay; also called CD123_WT; recombinant wildtype CD123
T1 sequence: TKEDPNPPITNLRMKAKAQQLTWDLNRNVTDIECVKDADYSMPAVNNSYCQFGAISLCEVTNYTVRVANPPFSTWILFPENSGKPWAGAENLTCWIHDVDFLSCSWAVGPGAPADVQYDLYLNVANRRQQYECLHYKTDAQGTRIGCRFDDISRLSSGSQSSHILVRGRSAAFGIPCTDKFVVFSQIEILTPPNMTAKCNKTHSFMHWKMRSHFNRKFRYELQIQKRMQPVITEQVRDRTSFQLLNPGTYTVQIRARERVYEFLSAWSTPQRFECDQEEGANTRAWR
Experiment: BLI (Octet), flotetuzumab hIgG1 captured on anti-human Fc tips, CD123 ECD as analyte, level at 250 s
Method: Antibody flotetuzumab hIgG1 was captured by Anti-Human Fc capture biosensor (AHC) (Sartorius, PN: 18-5060) for 300 s at 0.5 μg/mL. Analytes CD123 ECD wt and variants (only CD123 ECD variants at high analyte concentrations) were titrated at 7 concentrations from 50 nM to 0.78 nM or 300 nM to 4.7 nM, respectively. Association to analyte was monitored for 300 s and dissociation for 600 s (CD123 wt) and 900 s (CD123 variants). Double reference subtraction was performed against buffer only well and biosensor loaded with a negative hIgG1 control. Regeneration was performed in 10 mM Gly-HCl pH 1.7. Data were analyzed using the Octet Data Analysis software HT

- binding result: binds
B1: Flotetuzumab hIgG1 (antibody, V domains shown)
VH: EVQLVQSGAELKKPGASVKVSCKASGYTFTDYYMKWVRQAPGQGLEWIGDIIPSNGATFYNQKFKGRVTITVDKSTSTAYMELSSLRSEDTAVYYCARSHLLRASWFAYWGQGTLVTVSS
VL: DFVMTQSPDSLAVSLGERVTMSCKSSQSLLNSGNQKNYLTWYQQKPGQPPKLLIYWASTRESGVPDRFSGSGSGTDFTLTISSLQAEDVAVYYCQNDYSYPYTFGQGTKLEIK
notes: Tested as hIgG1 in BLI; also called Anti-CD123 antibody (Flotetuzumab)
